{"source": "paper PMC10813008", "origin": "cited, not measured here", "key": {"His12": {"molecular_target": "His12 (UniProt position 38, KFERQHMDSST)", "assay": "mass spectrometry"}, "His119": {"molecular_target": "His119 (UniProt position 145, PYVPVHFDASV)", "assay": "mass spectrometry"}, "His25": {"molecular_target": "His25 (UniProt position 26, QTCVVHYTGML)", "assay": "NMR", "conditions": "not stated (ref 75 studied forms with and without immunosuppressant ligands; the review does not say which form the limit refers to)"}, "His61": {"molecular_target": "His61 (UniProt position 92, RYQMDHGARIF)", "assay": "NMR"}, "His81": {"molecular_target": "His81 (UniProt position 112, NTIVLHHGPLY)", "assay": "NMR"}, "His54": {"molecular_target": "His54 (UniProt position 54, KGSCFHRIIPG)", "assay": "NMR", "conditions": "not stated (ref 75 studied forms with and without immunosuppressant ligands; the review does not say which form the limit refers to)"}, "[1]": {"conditions": "complex with 3'-cytidine monophosphate (3'-CMP)"}}, "data": [{"substance": "Ribonuclease A (RNase A, pancreatic ribonuclease) (Bos taurus)", "values": [{"measurement": "pKa", "setting": "His12; [1]", "result": 7.1}, {"measurement": "pKa", "setting": "His12; free enzyme", "result": 5.8}, {"measurement": "pKa", "setting": "His119; [1]", "result": 7.0}, {"measurement": "pKa", "setting": "His119; free enzyme", "result": 6.3}]}, {"substance": "FK506 binding protein (FKBP) (not stated (probably Homo sapiens))", "values": [{"measurement": "pKa", "setting": "His25", "result": "< 3.6"}]}, {"substance": "Phosphatidylinositol-specific phospholipase C (PI-PLC) (Bacillus cereus)", "values": [{"measurement": "pKa", "setting": "His61", "result": "< 3"}, {"measurement": "pKa", "setting": "His81", "result": "< 3"}]}, {"substance": "Cyclophilin (cyclophilin A) (not stated (probably Homo sapiens))", "values": [{"measurement": "pKa", "setting": "His54", "result": "< 4.2"}]}]}
